Data: paper doi:10.1101/2021.10.11.463889

Target: GST-tagged proline-rich domain (PRD) of Dyn2 (human)
Test: pull-down

Chain of GST-tagged proline-rich domain (PRD) of Dyn2 (human) (P50570 whole entry, the tested form may be a part): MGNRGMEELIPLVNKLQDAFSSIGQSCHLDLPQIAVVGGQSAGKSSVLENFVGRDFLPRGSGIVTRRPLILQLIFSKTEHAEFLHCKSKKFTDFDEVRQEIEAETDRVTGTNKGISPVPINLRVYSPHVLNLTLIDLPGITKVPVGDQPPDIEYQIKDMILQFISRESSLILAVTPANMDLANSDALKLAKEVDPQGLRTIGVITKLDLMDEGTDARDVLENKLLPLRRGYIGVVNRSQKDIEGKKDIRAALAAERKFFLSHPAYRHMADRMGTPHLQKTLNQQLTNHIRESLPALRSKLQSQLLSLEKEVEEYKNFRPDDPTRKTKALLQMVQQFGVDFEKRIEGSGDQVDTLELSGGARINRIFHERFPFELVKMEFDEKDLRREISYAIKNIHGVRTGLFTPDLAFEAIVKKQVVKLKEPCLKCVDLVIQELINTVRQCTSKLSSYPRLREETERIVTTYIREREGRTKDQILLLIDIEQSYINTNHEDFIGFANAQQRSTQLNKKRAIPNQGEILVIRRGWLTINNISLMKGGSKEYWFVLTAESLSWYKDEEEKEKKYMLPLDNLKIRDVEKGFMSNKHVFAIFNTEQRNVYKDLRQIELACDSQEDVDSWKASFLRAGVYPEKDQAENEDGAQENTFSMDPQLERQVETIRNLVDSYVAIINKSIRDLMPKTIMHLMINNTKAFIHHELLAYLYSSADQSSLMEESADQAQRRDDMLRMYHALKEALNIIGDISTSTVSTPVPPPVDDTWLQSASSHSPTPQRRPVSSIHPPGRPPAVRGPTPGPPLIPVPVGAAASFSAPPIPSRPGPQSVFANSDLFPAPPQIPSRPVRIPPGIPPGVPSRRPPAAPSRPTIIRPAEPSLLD

Kd [µM] | Substance
0.267 | His-tagged human Bin1 isoform 8, CNM-associated mutant K436X (domain or fragment)
0.18 | His-tagged human Bin1 isoform 8, wild type (natural protein)
